# T1: primary soluble TL1A produced from an activated human PBMC (human, UniProt O95150 72-251, limits assumed)
# T1 sequence (looked up): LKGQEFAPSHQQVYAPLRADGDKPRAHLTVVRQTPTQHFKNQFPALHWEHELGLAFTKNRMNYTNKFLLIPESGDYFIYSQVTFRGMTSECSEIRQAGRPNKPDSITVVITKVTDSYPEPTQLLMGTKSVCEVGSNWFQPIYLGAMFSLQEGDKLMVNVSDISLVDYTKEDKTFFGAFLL
# B1: chimera A-Fc (Eg1S YTE) (Fc fusion)
# chain: ETFPPKYLHYDEETSHQLLCDKCPPGTYLKQHCTAKWKTVCAPCPPRHYTQFWNYLERCRYCNVLCGEREEEARACHATHNRACRCRTGFFAHAGFCLEHASCPPGAGVIAPGTPSQNTQCQPCPDGFFSNETSSKAPCRKHTNCSVFGLLLTQKGNATHDNICSGNSESTQKEPKSSDKTHTCPPCPAPELLGGPSVFLFPPKPKDTLYITREPEVTCVVVDVSHEDPEVKFNWYVDGVEVHNAKTKPREEQYNSTYRVVSVLTVLHQDWLNGKEYKCKVSNKALPAPIEKTISKAKGQPREPQVYTLPPSRDELTKNQVSLTCLVKGFYPSDIAVEWESNGQPENNYKTTPPVLDSDGSFFLYSKLTVDKSRWQQGNVFSCSVMHEALHNHYTQKSLSLSPGK
# B2: chimera A-E57K_R58E-Fc (Eg1S YTE) (Fc fusion)
# chain: ETFPPKYLHYDEETSHQLLCDKCPPGTYLKQHCTAKWKTVCAPCPPRHYTQFWNYLKECRYCNVLCGEREEEARACHATHNRACRCRTGFFAHAGFCLEHASCPPGAGVIAPGTPSQNTQCQPCPDGFFSNETSSKAPCRKHTNCSVFGLLLTQKGNATHDNICSGNSESTQKEPKSSDKTHTCPPCPAPELLGGPSVFLFPPKPKDTLYITREPEVTCVVVDVSHEDPEVKFNWYVDGVEVHNAKTKPREEQYNSTYRVVSVLTVLHQDWLNGKEYKCKVSNKALPAPIEKTISKAKGQPREPQVYTLPPSRDELTKNQVSLTCLVKGFYPSDIAVEWESNGQPENNYKTTPPVLDSDGSFFLYSKLTVDKSRWQQGNVFSCSVMHEALHNHYTQKSLSLSPGK
# notes: also called 45-18-Fc (Eg1S YTE)
# B3: chimera A-Fc (Eg1S LALAGANA) (Fc fusion)
# chain: ETFPPKYLHYDEETSHQLLCDKCPPGTYLKQHCTAKWKTVCAPCPPRHYTQFWNYLERCRYCNVLCGEREEEARACHATHNRACRCRTGFFAHAGFCLEHASCPPGAGVIAPGTPSQNTQCQPCPDGFFSNETSSKAPCRKHTNCSVFGLLLTQKGNATHDNICSGNSESTQKEPKSSDKTHTCPPCPAPEAAGAPSVFLFPPKPKDTLMISRTPEVTCVVVDVSHEDPEVKFNWYVDGVEVHNAKTKPREEQYNSTYRVVSVLTVLHQDWLNGKEYKCKVSNKALPAPIEKTISKAKGQPREPQVYTLPPSRDELTKNQVSLTCLVKGFYPSDIAVEWESNGQPENNYKTTPPVLDSDGSFFLYSKLTVDKSRWQQGNVFSCSVMHEALHAHYTQKSLSLSPGK
# B4: chimera A-E57K_R58E-Fc (Eg1S LALAGANA) (Fc fusion)
# chain: ETFPPKYLHYDEETSHQLLCDKCPPGTYLKQHCTAKWKTVCAPCPPRHYTQFWNYLKECRYCNVLCGEREEEARACHATHNRACRCRTGFFAHAGFCLEHASCPPGAGVIAPGTPSQNTQCQPCPDGFFSNETSSKAPCRKHTNCSVFGLLLTQKGNATHDNICSGNSESTQKEPKSSDKTHTCPPCPAPEAAGAPSVFLFPPKPKDTLMISRTPEVTCVVVDVSHEDPEVKFNWYVDGVEVHNAKTKPREEQYNSTYRVVSVLTVLHQDWLNGKEYKCKVSNKALPAPIEKTISKAKGQPREPQVYTLPPSRDELTKNQVSLTCLVKGFYPSDIAVEWESNGQPENNYKTTPPVLDSDGSFFLYSKLTVDKSRWQQGNVFSCSVMHEALHAHYTQKSLSLSPGK
# B5: chimera A-E57K-Fc (Eg1S LALAGANA) (Fc fusion)
# chain: ETFPPKYLHYDEETSHQLLCDKCPPGTYLKQHCTAKWKTVCAPCPPRHYTQFWNYLKRCRYCNVLCGEREEEARACHATHNRACRCRTGFFAHAGFCLEHASCPPGAGVIAPGTPSQNTQCQPCPDGFFSNETSSKAPCRKHTNCSVFGLLLTQKGNATHDNICSGNSESTQKEPKSSDKTHTCPPCPAPEAAGAPSVFLFPPKPKDTLMISRTPEVTCVVVDVSHEDPEVKFNWYVDGVEVHNAKTKPREEQYNSTYRVVSVLTVLHQDWLNGKEYKCKVSNKALPAPIEKTISKAKGQPREPQVYTLPPSRDELTKNQVSLTCLVKGFYPSDIAVEWESNGQPENNYKTTPPVLDSDGSFFLYSKLTVDKSRWQQGNVFSCSVMHEALHAHYTQKSLSLSPGK
# B6: chimera A-E57K-Fc (Eg1S YTE) (Fc fusion)
# chain: ETFPPKYLHYDEETSHQLLCDKCPPGTYLKQHCTAKWKTVCAPCPPRHYTQFWNYLKRCRYCNVLCGEREEEARACHATHNRACRCRTGFFAHAGFCLEHASCPPGAGVIAPGTPSQNTQCQPCPDGFFSNETSSKAPCRKHTNCSVFGLLLTQKGNATHDNICSGNSESTQKEPKSSDKTHTCPPCPAPELLGGPSVFLFPPKPKDTLYITREPEVTCVVVDVSHEDPEVKFNWYVDGVEVHNAKTKPREEQYNSTYRVVSVLTVLHQDWLNGKEYKCKVSNKALPAPIEKTISKAKGQPREPQVYTLPPSRDELTKNQVSLTCLVKGFYPSDIAVEWESNGQPENNYKTTPPVLDSDGSFFLYSKLTVDKSRWQQGNVFSCSVMHEALHNHYTQKSLSLSPGK
# Target: T1, primary soluble TL1A produced from an …
# Experiment: sandwich ELISA, binder captured
# Method: Then, 10 μg/mL of anti-human IgG antibodies (American Qualex International, Inc.) were immobilized to a 96-well immunoplate (Thermo Scientific), and blocking was performed with 2% Block Ace (DS Pharma Biomedical Co., Ltd.), and then 2 μg/mL of chimera A-Fc, E57K-Fc and 45-18-Fc (in all of which Fc is Eg1S YTE or Eg1S […]) were captured. The culture supernatant of human T cells stimulated for LIGHT production was concentrated 6-fold using Amicon Ultra-15 having a molecular weight cutoff of 3 kDa (Merck Millipore) prerinsed with sterile water. After the plate was washed, the 6-fold concentrated culture supernatant was reacted. As a standard of LIGHT, the soluble recombinant FLAG-LIGHT trimer produced in Example 13 was used. After the plate was washed, a biotinylated anti-LIGHT antibody (R&D Systems, Inc.) was reacted. After the plate was washed, streptavidin-HRP (PIERCE) was reacted. After washing again, a TMB solution (Dako) was added to develop a color. Then, a 2 N sulfuric acid solution was used to stop the chromogenic reaction, and the absorbance at 450 nm (reference wavelength of 570 nm) was measured.
# Sandwich ELISA was performed by the same method as in (1). On a 96-well immunoplate, chimera A-Fc, E57K-Fc and 45-18-Fc (in all of which Fc is Eg1S YTE or Eg1S […]) or the anti-human TL1A antibody produced in Example 16 was captured. Then, with the plate, a 4-fold concentrated culture supernatant of PBMCs stimulated for TL1A production or as a standard, the soluble recombinant His6-TL1A trimer produced in Example 13 was reacted, followed by detection with a biotinylated anti-TL1A antibody (R&D Systems, Inc.).
# Sandwich ELISA was performed by the same method as in (1). On a 96-well immunoplate, chimera A-Fc, E57K-Fc and 45-18-Fc (each including Eg1S YTE or Eg1S […] as an Fc) or Fas-Fc (R&D Systems, Inc.) was captured, and then a 6-fold concentrated culture supernatant of human T cells stimulated for AICD or as a standard, Human His6 Fas Ligand/TNFSF6 (Cell Signaling Technology, Inc.) was reacted, followed by detection with a biotinylated anti-FasL antibody included with Human Fas Ligand ELISA Kit (Abcam plc).
row,Binder,binding result
1,B1,binds
2,B2,binds
3,B3,binds
4,B4,binds
5,B5,binds
6,B6,binds

# Reference: patent publication US20220340642A1 (Kyowa Kirin, published 2022)
